Data reported in patent US20260274991A1.

Target: Native Trypsin (abcam)
Assay: cell-based or functional assay

IC50 Against 0.25 nM Native Trypsin: 4.8 nM
B1: Trypsin 1/Trypsin 2-Dual-L4-Ab5 (antibody, part only; not given: light chain variable domain, V domains shown, part only)
VH: QVQLVQSGAEVKKPGASVKVSCKASGYTFTDYAISWVRQAPGQGLEWMGWISASTADTNYAQKLQGRVTMTTDTSTSTAYMELRSLRSDDTAVYYCARQDEVVGKMTYYIGTDVWGQGTTVTVSS
